US12485179B2, “Cholecystokinin B receptor targeting for imaging and therapy” (Purdue Research Foundation, priority 2012, dated 2025)

Test system: HEK CCK2R tumor xenografts
Test: In vivo radio-imaging and bio-distribution, HEK CCK2R tumor xenografts
Design: species or system nu/nu mice
Protocol: In order to test the in vivo specificity of CRL-3 chelated with ^99mTc, HEK CCK2R and CCK2i4svR subcutaneous tumors were produced in nude mice according to known methods. Athymic female nu/nu mice were purchased from Harlan Laboratories and maintained on normal rodent chow and housed in a sterile environment on a standard 12 hour light and dark cycle for the duration of the study. All animal procedures were approved by the Purdue Animal Care and Use Committee in accordance with NIH guidelines.
150 microcurie of CRL-3 ^99mTc was injected intravenously into each mouse. FIGS. 3A-B show an overlay of whole-body radio-images on white light photographs of mice bearing images of HEK CCK2R (a, b) and HEK CCKRi4sv (c, d) tumor xenografts in nu/nu mice two hours after the administration of CRL-3 ^99mTc. Kidneys were shielded with a lead plate. Mice a and c had the radioactive conjugate administered along with 100 fold of free unlabeled targeting ligand. In mice b and d, only the radio-conjugate CRL-3 ^99mTc was administered. Arrows indicate location of the tumor.
Following the above radio-imaging studies, animals were dissected and selected organs/tissues were collected into pre-weighed γ-counter tubes. Radioactivity of weighed tissues and test compounds were counted in a γ-counter. CPM values were decay corrected and results were calculated as % injected dose per gram of wet tissue (% ID/g). FIGS. 4A-B show the bio-distribution of the CRL-3 ^99mTc in mice having HEK CCK2i4svR and HEK CCK2R tumors. Error bars represent the standard deviation (n=5 mice/group).
Since small molecules are often excreted via the kidneys^43, we next elected to determine whether uptake of CRL-3 ^99mTc in the kidneys might be transient. […] By 24 h post tail vein injection, tumor to tissue ratios of CRL-3 ^99mTc in the muscle, heart, skin, blood, liver, and spleen were 90, 83, 30, 61, 4 and 14, respectively (see also Table 3).

[1] = 0.5, 2, 4, 8 hours post tail vein injection

SMILES: CC(C)(C)C(=O)CN1C(=O)[C@H](NC(=O)Nc2cccc(C(=O)NCCCCCCCC(=O)N[C@H](CCC(=O)O)C(=O)N[C@H](CCC(=O)NC[C@H](O)[C@@H](O)[C@H](O)[C@H](O)CO)C(=O)N[C@H](CCC(=O)O)C(=O)N[C@H](CCC(=O)NC[C@H](O)[C@@H](O)[C@H](O)[C@H](O)CO)C(=O)NC[C@@H]3[NH][99Tc]45[S]C[C@@H](C(=O)O)[N]4C(=O)[C@H](CC(=O)O)[N]5C3=O)c2)CN(C2CCCCC2)c2ccccc21 (stereo partly shown) [CRL-3 ^99mTc]
- content of the kidneys over time (SPECT-CT) [1]: decreased significantly over time
- uptake in the tumor mass over time (SPECT-CT) [1]: relatively stable
- accumulation of radio-conjugate, whole-body radio-image (150 microcurie i.v., two hours after administration, kidneys shielded): accumulated mainly in the receptor expressing tumor with little or no accumulation in other tissues except the kidney
- tumor to tissue ratio, blood (24 h post tail vein injection): 61
- tumor to tissue ratio, heart (24 h post tail vein injection): 83
- tumor to tissue ratio, liver (24 h post tail vein injection): 4
- tumor to tissue ratio, muscle (24 h post tail vein injection): 90
- tumor to tissue ratio, skin (24 h post tail vein injection): 30
- tumor to tissue ratio, spleen (24 h post tail vein injection): 14
- Uptake of radioactivity, Blood (0.5 h post injection): 5.8 ± 2.7 % ID/g
- Uptake of radioactivity, Blood (2 h post injection): 1.9 ± 0.97 % ID/g
- Uptake of radioactivity, Blood (4 h post injection): 1.7 % ID/g
- Uptake of radioactivity, Blood (8 h post injection): 0.24 % ID/g
- Uptake of radioactivity, Blood (24 h post injection): 0.10 % ID/g
- Uptake of radioactivity, Brain (0.5 h post injection): 0.13 % ID/g
- Uptake of radioactivity, Brain (2 h post injection): 0.051 % ID/g
- Uptake of radioactivity, Brain (4 h post injection): 0.053 % ID/g
- Uptake of radioactivity, Brain (8 h post injection): 0.064 % ID/g
- Uptake of radioactivity, Brain (24 h post injection): 0.0076 % ID/g
- Uptake of radioactivity, Heart (0.5 h post injection): 2.3 ± 1.5 % ID/g
- Uptake of radioactivity, Heart (2 h post injection): 0.68 ± 0.47 % ID/g
- Uptake of radioactivity, Heart (4 h post injection): 0.59 % ID/g
- Uptake of radioactivity, Heart (8 h post injection): 0.14 % ID/g
- Uptake of radioactivity, Heart (24 h post injection): 0.076 % ID/g
- Uptake of radioactivity, Large Intestine (0.5 h post injection): 1.0 ± 0.52 % ID/g
- Uptake of radioactivity, Large Intestine (2 h post injection): 0.46 ± 0.20 % ID/g
- Uptake of radioactivity, Large Intestine (4 h post injection): 0.53 % ID/g
- Uptake of radioactivity, Large Intestine (8 h post injection): 0.24 % ID/g
- Uptake of radioactivity, Large Intestine (24 h post injection): 0.13 % ID/g
- Uptake of radioactivity, Left Kidney (0.5 h post injection): 11.2 ± 6.1 % ID/g
- Uptake of radioactivity, Left Kidney (2 h post injection): 8.4 ± 4.6 % ID/g
- Uptake of radioactivity, Left Kidney (4 h post injection): 13.4 % ID/g
- Uptake of radioactivity, Left Kidney (8 h post injection): 6.0 % ID/g
- Uptake of radioactivity, Left Kidney (24 h post injection): 2.6 % ID/g
- Uptake of radioactivity, Liver (0.5 h post injection): 6.7 ± 3.6 % ID/g
- Uptake of radioactivity, Liver (2 h post injection): 2.5 ± 2.4 % ID/g
- Uptake of radioactivity, Liver (4 h post injection): 4.1 % ID/g
- Uptake of radioactivity, Liver (8 h post injection): 1.9 % ID/g
- Uptake of radioactivity, Liver (24 h post injection): 1.4 % ID/g
- Uptake of radioactivity, Lungs (0.5 h post injection): 3.2 ± 1.7 % ID/g
- Uptake of radioactivity, Lungs (2 h post injection): 1.2 ± 0.55 % ID/g
- Uptake of radioactivity, Lungs (4 h post injection): 1.0 % ID/g
- Uptake of radioactivity, Lungs (8 h post injection): 0.29 % ID/g
- Uptake of radioactivity, Lungs (24 h post injection): 0.18 % ID/g
- Uptake of radioactivity, Muscle (0.5 h post injection): 0.8 ± 0.37 % ID/g
- Uptake of radioactivity, Muscle (2 h post injection): 0.29 % ID/g
- Uptake of radioactivity, Muscle (4 h post injection): 0.3 % ID/g
- Uptake of radioactivity, Muscle (8 h post injection): 0.093 % ID/g
- Uptake of radioactivity, Muscle (24 h post injection): 0.070 % ID/g
- Uptake of radioactivity, Pancreas (0.5 h post injection): 1.3 ± 0.62 % ID/g
- Uptake of radioactivity, Pancreas (2 h post injection): 0.69 ± 0.84 % ID/g
- Uptake of radioactivity, Pancreas (4 h post injection): 0.29 % ID/g
- Uptake of radioactivity, Pancreas (8 h post injection): 0.10 % ID/g
- Uptake of radioactivity, Pancreas (24 h post injection): 0.053 % ID/g
- Uptake of radioactivity, Right Kidney (0.5 h post injection): 11.4 ± 6.3 % ID/g
- Uptake of radioactivity, Right Kidney (2 h post injection): 7.6 ± 4.4 % ID/g
- Uptake of radioactivity, Right Kidney (4 h post injection): 12.8 % ID/g
- Uptake of radioactivity, Right Kidney (8 h post injection): 5.7 % ID/g
- Uptake of radioactivity, Right Kidney (24 h post injection): 2.6 % ID/g
- Uptake of radioactivity, Skin (0.5 h post injection): 2.3 ± 1.2 % ID/g
- Uptake of radioactivity, Skin (2 h post injection): 1.0 ± 0.41 % ID/g
- Uptake of radioactivity, Skin (4 h post injection): 1.1 % ID/g
- Uptake of radioactivity, Skin (8 h post injection): 0.42 % ID/g
- Uptake of radioactivity, Skin (24 h post injection): 0.21 % ID/g
- Uptake of radioactivity, Small Intestine (0.5 h post injection): 1.2 ± 0.63 % ID/g
- Uptake of radioactivity, Small Intestine (2 h post injection): 0.52 ± 0.28 % ID/g
- Uptake of radioactivity, Small Intestine (4 h post injection): 0.52 % ID/g
- Uptake of radioactivity, Small Intestine (8 h post injection): 0.19 % ID/g
- Uptake of radioactivity, Small Intestine (24 h post injection): 0.13 % ID/g
- Uptake of radioactivity, Spleen (0.5 h post injection): 2.1 ± 1.2 % ID/g
- Uptake of radioactivity, Spleen (2 h post injection): 0.69 ± 0.70 % ID/g
- Uptake of radioactivity, Spleen (4 h post injection): 1.4 % ID/g
- Uptake of radioactivity, Spleen (8 h post injection): 0.65 % ID/g
- Uptake of radioactivity, Spleen (24 h post injection): 0.45 % ID/g
- Uptake of radioactivity, Stomach (0.5 h post injection): 1.2 ± 0.61 % ID/g
- Uptake of radioactivity, Stomach (2 h post injection): 0.58 ± 0.32 % ID/g
- Uptake of radioactivity, Stomach (4 h post injection): 0.56 % ID/g
- Uptake of radioactivity, Stomach (8 h post injection): 0.24 % ID/g
- Uptake of radioactivity, Stomach (24 h post injection): 0.15 % ID/g
- Uptake of radioactivity, Tumor (0.5 h post injection): 7.4 ± 4.6 % ID/g
- Uptake of radioactivity, Tumor (2 h post injection): 8.1 ± 5.1 % ID/g
- Uptake of radioactivity, Tumor (4 h post injection): 12.0 % ID/g
- Uptake of radioactivity, Tumor (8 h post injection): 8.5 % ID/g
- Uptake of radioactivity, Tumor (24 h post injection): 6.3 ±3.7 % ID/g
- bio-distribution of radiotracer in organs/tissues (after radio-imaging, n=5 mice/group): only the tumor and kidneys show excessive accumulation of radiotracer
